From patent publication US12460006B2, “Antibodies against integrin alpha 11 beta 1” (Momenta Pharmaceuticals, Inc., priority 2019, dated 2025)
Where a chain is given by its changes, count along the chain named. One block for each molecule: values may come before it.

Assays:
[1] = target: T1, α11β1 expressed on the surface of CHO-K1 cells (Homo sapiens, UniProt Q9UKX5); experiment: FACS antibody binding to CHO-K1 cells expressing human α11; details: binding Yes/No
T1 construct: expressed in transfected cells; host or cells: CHO-K1
T1 sequence (Q9UKX5 23-1188): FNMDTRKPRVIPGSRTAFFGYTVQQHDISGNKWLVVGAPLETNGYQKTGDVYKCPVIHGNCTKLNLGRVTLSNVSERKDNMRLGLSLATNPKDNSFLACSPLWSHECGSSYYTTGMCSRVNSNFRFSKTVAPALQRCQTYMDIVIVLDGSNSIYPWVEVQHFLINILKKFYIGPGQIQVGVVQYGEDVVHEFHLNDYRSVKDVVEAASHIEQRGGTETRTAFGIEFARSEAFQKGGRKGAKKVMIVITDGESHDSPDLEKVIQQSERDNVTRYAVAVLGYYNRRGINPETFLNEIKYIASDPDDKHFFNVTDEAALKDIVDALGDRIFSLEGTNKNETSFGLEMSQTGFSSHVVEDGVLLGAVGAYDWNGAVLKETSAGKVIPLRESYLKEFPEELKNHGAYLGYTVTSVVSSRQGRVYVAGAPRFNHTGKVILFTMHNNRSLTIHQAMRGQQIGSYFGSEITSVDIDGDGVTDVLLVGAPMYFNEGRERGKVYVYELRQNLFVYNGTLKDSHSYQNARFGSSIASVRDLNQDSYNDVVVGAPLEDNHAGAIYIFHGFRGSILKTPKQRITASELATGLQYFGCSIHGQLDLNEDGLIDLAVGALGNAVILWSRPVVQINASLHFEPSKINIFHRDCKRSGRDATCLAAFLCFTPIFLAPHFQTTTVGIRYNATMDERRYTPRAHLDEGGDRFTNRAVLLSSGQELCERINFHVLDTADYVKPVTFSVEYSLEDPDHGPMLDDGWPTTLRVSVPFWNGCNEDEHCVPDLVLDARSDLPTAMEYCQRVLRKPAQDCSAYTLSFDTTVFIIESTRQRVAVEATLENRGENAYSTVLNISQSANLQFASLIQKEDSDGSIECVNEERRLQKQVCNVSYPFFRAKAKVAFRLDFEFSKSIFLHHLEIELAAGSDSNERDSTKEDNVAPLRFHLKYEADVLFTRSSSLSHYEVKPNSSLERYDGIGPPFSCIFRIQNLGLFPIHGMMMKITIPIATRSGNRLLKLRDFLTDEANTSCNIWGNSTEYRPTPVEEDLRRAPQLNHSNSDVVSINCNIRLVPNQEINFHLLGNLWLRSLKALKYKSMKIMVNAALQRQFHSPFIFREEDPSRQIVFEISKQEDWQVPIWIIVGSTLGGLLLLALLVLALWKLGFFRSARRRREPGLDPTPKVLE
Description: 200,000 cells (wild-type CHO-K1 cells or CHO-K1 cells expressing human α11) were incubated with each antibody at desired concentrations in FACS buffer for 30 min at 4° C. Then, the cells were washed with FACS buffer and incubated with secondary antibody at 1:100 dilution for 30 minutes at 4° C. Cells were then washed and fixed with 1% PFA in PBS for 20 minutes at room temperature; washed again and read on a cytometer in FACS buffer.
Since integrins are large, transmembrane receptors that exist in different conformational shapes, experiments were performed to confirm that the novel antibodies also bound cell-expressed α11β1. A CHO-K1 cell line that endogenously expressed high levels of the β1 subunit was engineered to stably express human α11 (CHO-K1 hu α11).
Binding EC50 was estimated using data from Fluorescence-activated cell sorting (FACS) performed with CHO-K1 hu α11β1 cells.

I domain of α11β1 = target: T2, I domain of α11β1 (Homo sapiens, UniProt Q9UKX5); experiment: ELISA binding to in-house generated I domain of α11β1; details: Yes/No
T2 construct: An in-house generated I domain of α11β1 was used; made in house
T2 sequence (Q9UKX5 164-345 limits assumed): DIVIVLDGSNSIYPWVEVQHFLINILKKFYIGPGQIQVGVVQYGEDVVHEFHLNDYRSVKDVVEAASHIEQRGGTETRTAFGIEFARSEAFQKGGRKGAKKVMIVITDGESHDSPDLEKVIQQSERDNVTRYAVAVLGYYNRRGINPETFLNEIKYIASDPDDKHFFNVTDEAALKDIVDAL
Description: 0.25 μg/mL of target antigen (recombinant human or mouse α11β1) was plated in a 96-well plate over night at 4° C. Plates were washed (PBS with 0.1% Tween-20), blocked (PBS with 2% BSA and 0.05% Tween-20) for 1 hour at room temperature and incubated with a range of antibody concentrations for 1 hour at room temperature. Subsequently, plates were washed and incubated with biotinylated anti-rabbit/mouse/human IgG in a 1:1000 dilution buffer and incubated for 1 hour at room temperature. After washing the plates, Streptavidin HRP was added at 1:200 in dilution buffer and incubated for 1 hour at room temperature. Ultra TMB ELISA substrate solution was added and the plates incubated for 5 minutes on a plate shaker. The reaction was stopped by adding stop solution to each well and plates were read at 450 nm.
22 Data was also collected to determine whether antibodies of interest bind to the I domain of α11β1. An in-house generated I domain of α11β1 was used. […] Mouse antibodies 10-F23, 10-L15, 7-O8, 6-A12, 9-G05 and 9-E16 and rabbit antibodies 7-H12 and 2-D3 were also tested for binding against the in-house generated α11031 domain. FIGS. 3A and 3B show graphs illustrating binding data from exemplary mAbs.

myofibroblasts (MF) = experiment: FACS antibody binding to myofibroblasts; design: species or system human; details: binding Yes/No
Description: (§1) Human Pulmonary Fibroblasts (ScienCell) were cultured in complete Fibroblast Growth Medium (ScienCell) until 80% confluent in T-150 flasks. Cells were washed and harvested using Accutase. Cells were seeded into T-150 flasks at 7,500 cells/cm^2 in complete FGF and cultured for 72 hours. Cells were then washed and starved in serum reduced medium for 24 hours. After starvation, cells were treated with TGFβ-1 (R&D Systems) for 72 hours. Cells were harvested using Accutase and seeded in 96-well conical bottom plates. Cells were blocked with Heat Inactived Fetal Bovine Serum (Gibco) for 30 minutes at 4° C. Cells were then incubated with anti-α11 antibodies at the doses described in each figure for 30 minutes at 4° C. A human anti-α11 antibody (Creative BioLabs) was included as a positive control as well as the appropriate IgG isotype negative controls. Cells were washed twice and incubated with PE conjugated secondary antibodies specific to the IgG class of the anti-α11 antibodies being tested for 30 minutes at 4° C. Cells were washed twice and fixed in 1% PFA for 30 minutes. Cells were acquired on a FACS Verse […]. Data were analyzed by gating on single cells and determining the geometric Mean Fluorescence Intensity (gMFI) in the PE channel for each sample.
(§2) Binding to a physiologically relevant primary human cell type was also tested. Human pulmonary fibroblasts (HPF) and TGFβ treatment were used to induce a fibroblast-to-myofibroblast transition (FMT), giving rise to myofibroblasts (MF). […] Additionally, HPFs express α11 and α2β1, other collagen binding receptors, which means that HPFs can be to test cross-reactivity of antibodies of interest.

[2] = tested on: human pulmonary fibroblasts (HPFs); experiment: FACS antibody binding to human pulmonary fibroblasts; details: binding Yes/No
Description: as §1, §2

CHO-K1 FACS [1]: No | I Domain binding (I domain of α11β1): No | MF FACS (myofibroblasts (MF)): No | HPF FACS [2]: No
B3: 6-M8: mouse anti-α11β1 mAb; VH SEQ ID NO: 129, VL SEQ ID NO: 130 (antibody, V domains shown)
VH: QVQLQQPGAELVMPGASVKLSCKASGYTFTNYWMHWVKQRPGQGLEWIGEIDPSDSYTNYNQKFKGKATLTVDKSSSTAYMQLSSLTSEDSAVYYCTRQGSTYAWGQGTSVTVSS
VL: DIVMTQAAFSNPVTLGTSASISCRSSKSLLHSNGITYLYWYLQKPGQSPQLLIYQMSNLASGVPDRFSSSGSGTDFTLRISRVEAEDVGVYYCAQNLELPPTFGGGTKLEIK

CHO-K1 FACS [1]: Yes | I Domain binding (I domain of α11β1): No | MF FACS (myofibroblasts (MF)): Yes | HPF FACS [2]: No
B7: 16G7: rabbit anti-α11β1 mAb; heavy chain SEQ ID NO: 159, light chain SEQ ID NO: 160 (antibody)
heavy: METGLRWLLLVAVFKGVQCQEQLVESGGDLVKPGASLTLTCTASGFSFNKNYWMCWVRQAPGKGLEWIGCIYNGDGNTYYASWVNGRFTISKTSSTTVTLQMTSLTVADTAIYFCARLLNMWGPGTLVTVSSGQPKAPSVFPLAPCCGDTPSSTVTLGCLVKGYLPEPVTVTWNSGTLTNGVRTFPSVRQSSGLYSLSSVVSVTSSSQPVTCNVAHPATNTKVDKTVAPSTCSKPMCPPPELPGGPSVFIFPPKPKDTLMISRTPEVTCVVVDVSQDDPEVQFTWYINNEQVRTARPPLREQQFNSTIRVVSTLPIAHQDWLRGKEFKCKVHNKALPAPIEKTISKARGQPLEPKVYTMGPPREELSSRSVSLTCMINGFYPSDISVEWEKNGKAEDNYKTTPTVLDSDGSYFLYSKLSVPTSEWQRGDVFTCSVMHEALHNHYTQKSISRSPGK
light: MDTRAPTQLLGLLLLWLPGARCADIVMTQTPASVEAAVGGTVTIKCQASESIGNALAWYQQKPGQPPKLLIYTAATLASGVPSRFSGSGSGTEFTLTISGVQCDDAATYYCQSYYFTSVSSYGNAFGGGTEVVVKGDPVAPTVLIFPPAADQVATGTVTIVCVANKYFPDVTVTWEVDGTTQTTGIENSKTPQNSADCTYNLSSTLTLTSTQYNSHKEYTCKVTQGTTSVVQSFNRGDC

Continued, molecule first:

B1: 10-F23: mouse anti-α11β1 mAb; VH SEQ ID NO: 125, VL SEQ ID NO: 126 (antibody, V domains shown)
VH: QVTLKESGPGILQPSQTLSLTCSFSGFSLSTFAMGVGWIRQPSGKGLEWLAHIWWDDDKYYNPALKSRLTISKDTSKNHVFLKIANVDTADTATYYCARMPLTFYFDYWGQGTTLTVSS
VL: DVLLTQTPLSLPVSLGDQASISCRSSQSIVHSNGHTYLEWYLQKPGQSPKLLIYKVSNRFSGVPDRFSGSGSGTDFTLKISRVEAEDLGVYYCFQGSHVPFTFGGGTKLEIK
CHO-K1 FACS [1]: Yes | I Domain binding (I domain of α11β1): Yes | MF FACS (myofibroblasts (MF)): Yes | HPF FACS [2]: No

B2: 6-A12: mouse anti-α11β1 mAb; VH SEQ ID NO: 127, VL SEQ ID NO: 128 (antibody, V domains shown)
VH: B1 VH with S30R, H79Q
VL: B1 VL with L4M, H35N, N58T
CHO-K1 FACS [1]: Yes | I Domain binding (I domain of α11β1): Yes | MF FACS (myofibroblasts (MF)): Yes | HPF FACS [2]: No

B4: 6-B21: mouse anti-α11β1 mAb; VH SEQ ID NO: 123, VL SEQ ID NO: 124 (antibody, V domains shown)
VH: EVQLQQSGPELVKPGASVKISCKASGYTFTDYYMNWVKQSHGKSLEWIGDINPHNGGTSFIQKFKGKATLTVDKSSSTAYMELRSLTSEDSAVYYCAPLGRKEGFAYWGQGTLVTVSA
VL: DTVLTQSPASLVVSLGQRATISCRASKSVSTSGYSYMHWYQQKPGQPPKLLIYLASNLESGVPARFSGSGSGTAFTLNIHPVEEEDAATYYCQHSRELPYTFGGGTKLEIK
CHO-K1 FACS [1]: No | I Domain binding (I domain of α11β1): No | MF FACS (myofibroblasts (MF)): No | HPF FACS [2]: No

B5: 6-O12: mouse anti-α11β1 mAb; VH SEQ ID NO: 117, VL SEQ ID NO: 118 (antibody, V domains shown)
VH: EVKLEESGGGLVQPGGSMKLSCAASGFTFSDAWMDWVRQSPEAGLEWVAEIRNKAHNPATYYAESVKGRFTISRDDSKSSVYLQMNSLRAEDTGIYYCTLVAPDAMDYWGQGTSVTVSS
VL: DIVMSLSPSSLAVSVGEKVTMSCKSSQSLLYSRNQKNYLAWYQQKPGQSPKLLIYWASTRASGVPDRFTGSGSGTDFTLTISSVKAEDLAVYYCQQYYSYPYTFGGGTKLEIK
CHO-K1 FACS [1]: No | I Domain binding (I domain of α11β1): No | MF FACS (myofibroblasts (MF)): No | HPF FACS [2]: No

B6: 3-G5: mouse anti-α11β1 mAb; VH SEQ ID NO: 135, VL SEQ ID NO: 136 (antibody, V domains shown)
VH: QVQLQQSGAELARPGASVKLSCKASGYTFTSYGISWVKQRTGQGLEWIGEIFPRSSNTYYNEKFKGKATLTADKSSSTVYMEFRSLTSEDSAVYFCAREGGLAWFAYWGQGTLVTVSA
VL: DVVMTQTPLTLSVTIGQPASISCKSSQSLLYTNGNTYLNWLLQRPGQSPKRLIYLVSKLDSGIPDRFSGSGSGTDFTLRISRVEAEDLGVYYCLQSTHFPFTFGSGTKLEIK
CHO-K1 FACS [1]: No | I Domain binding (I domain of α11β1): No | MF FACS (myofibroblasts (MF)): No | HPF FACS [2]: No
